{"source": "paper PMC6467980", "key": {"[1]": {"biological_target": "JO-4 (Adenovirus serotype 3 (Ad3)) (UniProt P04501)", "test": "SEC-MALS; Superdex 200 Increase 10/300 GL, 1X TBS, 1 mL/min; 100 µL at 2.5-2.8 mg/mL in PBS with 5% glycerol; native (oxidized) or reduced with DTT (1.6 mM, 50 °C 10 min, then a further 1.6 mM)"}, "[2]": {"biological_target": "recombinant human desmoglein 2 (human) (UniProt Q14126)", "test": "SPR; rhDSG2 amine-coupled to a CM5 chip (6000 RU), junction openers flowed; Biacore 3000, 25 °C; 10 mM HEPES, 150 mM NaCl, 0.005% surfactant P20, 2 mM CaCl2 pH 7.4; 15 µl/min; 1:1 Langmuir fit; apparent (avidity)"}, "[3]": {"biological_target": "recombinant human desmoglein 2 (human) (UniProt Q14126)"}, "[4]": {"biological_target": "recombinant human desmoglein 2 (human) (UniProt Q14126)", "remark": "listed apart in the source"}, "P04501": {"system": "P04501", "test": "SEC-MALS; Superdex 200 Increase 10/300 GL, 1X TBS, 1 mL/min; 100 µL at 2.5-2.8 mg/mL in PBS with 5% glycerol; native (oxidized) or reduced with DTT (1.6 mM, 50 °C 10 min, then a further 1.6 mM)"}, "[5]": {"biological_target": "JO-4 (Adenovirus serotype 3 (Ad3)) (UniProt P04501)", "test": "SPR; JO-4 or GB7_(V239D) amine-coupled to a CM5 chip (approximately 6000 RU), rhDSG2 flowed (17.4 nM to 0.87 nM, triplicate); Biacore 3000, 25 °C; 10 mM HEPES, 150 mM NaCl, 0.005% surfactant P20, 2 mM CaCl2 pH 7.4; 15 µl/min; 1:1 Langmuir fit; apparent (avidity)"}, "[6]": {"biological_target": "GB7_(V239D) (Adenovirus serotype 3 (Ad3)) (UniProt P04501)", "test": "SPR; JO-4 or GB7_(V239D) amine-coupled to a CM5 chip (approximately 6000 RU), rhDSG2 flowed (17.4 nM to 0.87 nM, triplicate); Biacore 3000, 25 °C; 10 mM HEPES, 150 mM NaCl, 0.005% surfactant P20, 2 mM CaCl2 pH 7.4; 15 µl/min; 1:1 Langmuir fit; apparent (avidity)"}}, "note": "pKd: −log10 of the molar value."}
{"substance": "JO-4 (from UniProt P04501 127-319) (designed binder)", "values": [{"measurement": "% total as Monomer (M), oxidized", "setting": "[1]", "result": 4, "unit": "%"}, {"measurement": "% total as Monomer (M), reduced", "setting": "[1]", "result": 3, "unit": "%"}, {"measurement": "% total as Multimer (Multi.), oxidized", "setting": "[1]", "result": 4, "unit": "%"}, {"measurement": "% total as Multimer (Multi.), reduced", "setting": "[1]", "result": "< 0.5", "unit": "%"}, {"measurement": "% total as Trimer (T), oxidized", "setting": "[1]", "result": 2, "unit": "%"}, {"measurement": "% total as Trimer (T), reduced", "setting": "[1]", "result": 2, "unit": "%"}, {"measurement": "% total as Trimer-Dimer (T-D), oxidized", "setting": "[1]", "result": "< 0.5", "unit": "%"}, {"measurement": "% total as Trimer-Dimer (T-D), reduced", "setting": "[1]", "result": 1, "unit": "%"}, {"measurement": "stoichiometry N", "setting": "[1]", "result": 3}, {"measurement": "pKd", "setting": "[2]", "result": 7.94}, {"measurement": "koff", "setting": "[2]", "result": 0.00264, "unit": "s⁻¹"}, {"measurement": "kon", "setting": "[2]", "result": 232000, "unit": "M⁻¹ s⁻¹"}, {"measurement": "DSG2 shedding (fold over PBS treated at 48 h), ELISA of shed DSG2", "setting": "[3]", "result": 1.44, "unit": "fold"}, {"measurement": "VIA IC50: inhibition of entry of Ad3-GFP reporter virus into HeLa cells (blocks Ad3 virus on DSG2)", "setting": "[4]", "result": 0.067, "unit": "µg/mL"}]}
{"substance": "JO-4", "values": [{"measurement": "% total as Aggregate (Agg.), oxidized", "setting": "P04501", "result": 90, "unit": "%"}, {"measurement": "% total as Aggregate (Agg.), reduced", "setting": "P04501", "result": 94, "unit": "%"}]}
{"substance": "recombinant human desmoglein 2 (from UniProt Q14126 50-609) (natural protein)", "values": [{"measurement": "pKd", "setting": "[5]", "result": 9.24}, {"measurement": "koff", "setting": "[5]", "result": 0.00046, "unit": "s⁻¹"}, {"measurement": "kon", "setting": "[5]", "result": 790000, "unit": "M⁻¹ s⁻¹"}, {"measurement": "pKd", "setting": "[6]", "result": 8.92}, {"measurement": "koff", "setting": "[6]", "result": 0.00075, "unit": "s⁻¹"}, {"measurement": "kon", "setting": "[6]", "result": 630000, "unit": "M⁻¹ s⁻¹"}]}
